Source: PMC5290487

What was measured:
[1] = biological target: MK2 (mitogen-activated protein kinase-activated protein kinase 2), endogenous in COS-1 cells; assay: co-immunoprecipitation (IP of endogenous MK2, western blot for PDE4A5), quantified; details: COS-1 cell lysates; parent: est. 100; read off a plot
[2] = biological target: MK2 (mitogen-activated protein kinase-activated protein kinase 2), endogenous in COS-1 cells; assay: as above; details: COS-1 cell lysates; parent: est. 100; read off a plot; remark: listed apart in the source

| Substance | percent of parent (% binding of MK2 in Wt IP) [1] | percent of parent (% binding of MK2 in Wt IP) [2] |
| --- | --- | --- |
| PDE4A5 (long PDE4A isoform), wild type (from UniProt P54748-1) T698A; L699A; E700A; E701A | 67 |  |
| PDE4A5 (long PDE4A isoform), wild type (from UniProt P54748-1) F141A |  | 58 |
| PDE4A5 (long PDE4A isoform), wild type (from UniProt P54748-1) F693A; Q694A; F695A | 63 |  |

Second part, the substance after the results:

| percent of parent (% binding of MK2 in Wt IP) [1] | percent of parent (% binding of MK2 in Wt IP) [2] | Substance |
| --- | --- | --- |
| 80 |  | PDE4A5 (long PDE4A isoform), wild type (from UniProt P54748-1) W664A; Y665A; H666A; S667A |
| 88 |  | PDE4A5 (long PDE4A isoform), wild type (from UniProt P54748-1) I654A; L655A; D656A |
|  | 73 | PDE4A5 (long PDE4A isoform), wild type (from UniProt P54748-1) L142A |
| 2 | 1.5 | PDE4A5 (long PDE4A isoform), wild type (from UniProt P54748-1) F141A; L142A; Y143A |
|  | 79 | PDE4A5 (long PDE4A isoform), wild type (from UniProt P54748-1) Y143A |
